21 molecules from US20090130114A1 (Amgen, published 2009) can be followed below.

This experiment addresses T1, human WISE (human, UniProt Q6X4U4 24-206).
T1 construct: Recombinant, made in E. coli or mammalian cells; biotinylated in the ELISAs, amine-coupled to CM5 in Biacore; also called huWise; huWISE
T1 sequence: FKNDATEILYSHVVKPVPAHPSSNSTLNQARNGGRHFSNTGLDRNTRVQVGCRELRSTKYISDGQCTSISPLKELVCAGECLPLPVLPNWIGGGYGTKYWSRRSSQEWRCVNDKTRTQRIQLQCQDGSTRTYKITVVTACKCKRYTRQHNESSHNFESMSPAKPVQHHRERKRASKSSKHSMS
The experiment can be described thus: assay not specified (IgG2 from transient transfection).

Changes are numbered by the printed parent chain.

B1: Ab-1 (antibody, human IgG2, lambda, V domains shown)
VH: QVQLVQSGAEVKKPGSSVKVSCKASGGTFSSTYISWVRQAPGQGLEWMGWIYAGTGGTRYNRKFTGRVTITADESTSTAYMELSSLRSEDTAVYYCAREGVDGWFTYWGQGTLVTVSS
VL: QSVVTQPPSVSGAPGQRVTMSCTGSSSNLGAGYDVNWYQQLPGKAPKVLIYGNEIRPSGVPDRFSGSKSDTSATLDITGLQTGDEADYYCETWDSSLSTVVFGGGTKLTVLG
notes: Phage-derived human light chain with the humanized Ab-C IgG2 heavy chain, transiently expressed in 293 6E cells
Turning to B1, the binding result is listed as “binds”.

B2: Ab-18 (antibody, human IgG2, kappa, V domains shown)
VH: B1 VH
VL: DIQLTQSPSSLSASVGDRVTITCQASQDINNYLSWYQQKPGKAPKVLIYDTSNLETGVPSRFSGSGSGTDFTFTISSLQPEDIATYYCQQSDNLPYTFGQGTKLEIKR
notes: Phage-derived human light chain with the humanized Ab-C IgG2 heavy chain
Consider B2, for which the binding result is given as “binds”.

B3: Ab-62 (antibody, human IgG2, lambda, V domains shown)
VH: B1 VH
VL: QAVLTQPSSVSGAPGRRVTISCTGSSSNIGAGYDVHWYQQLPGKAPKLVISANTNRPSGVPDRFSGSKSGTSASLAITGLQAEDEADYYCQSYDNSVSAYVFGTGTKVTVLG
notes: as for B2
In the case of B3, the binding result is “binds”.

B4: Ab-24 (antibody, human IgG2, kappa, V domains shown)
VH: B1 VH
VL: ETTLTQSPALLSLSPGERATLSCRASQTLSFDFFAWYQQKPGQAPSLLISGISTRAAGVPDRFSGSGSGTDFTLTIDRLEPEDFAVYFCQQSSSLPLTFGGGTKVEIRR
notes: as for B2
As to B4, the binding result is on record as “binds”.

B5: light chain of SEQ ID NO: 106 paired with the heavy chain of SEQ ID NO: 24 (antibody, human IgG2, lambda, V domains shown)
VH: B1 VH
VL: NFMLTQPHSVSESPGKTITISCTRSSGSISSNYVQWYQQRPGSSPRIVMSEDDQRPSGVSDRFSGSIDISSNSAFLTISGLKPEDEGDYYCQSYDTDIPYVFGTGTKVTVLG
Turning to B5, the binding result was “binds”.

B6: Ab-66 (antibody, human IgG2, lambda, V domains shown)
V domain 1: QSVVTQPPSVSGAPGQRVTISCTGSSSNIGAGYDVHWYQQLPGAAPKVLIFGNNNRPSGIPDRVSGSKSGTSASLAISGLQTEDEAVYYCQSYDSSLSAYVFGGGTQVTVLG
V domain 2: B1 VH
notes: as for B2
As for B6, the binding result is “binds”.

B7: light chain of SEQ ID NO: 112 paired with the heavy chain of SEQ ID NO: 24 (antibody, human IgG2, kappa, V domains shown)
VH: B1 VH
VL: DIQMTQSPGTLSLSPGERATLSCRTSQSVSSTSVAWYQQKPGQAPRLLMYDASSRAAGIPDRFSGSGSVTDFTLTISRLEPEDFATYYCQQSYSLPYTFGQGTKVEIKR
With B7, the binding result is given as “binds”.

B8: Ab-28 (antibody, human IgG2, kappa, V domains shown)
VH: B1 VH
VL: DIQMTQSPSSLSASVGDRVTITCRASQSISDYLNWYQQRPGKAPNLLIFASNTLQGGVPSRFRGSGSGTDFTLTINSLQHEDFGTYYCQQSYRTPLTFGGGTKVEIKR
notes: as for B2
As for B8, the binding result was “binds”.

B9: Ab-23 (antibody, human IgG2, kappa, V domains shown)
VH: B1 VH
VL: DIQMTQSPGTLSLSPGERATLFCRASQRVSSSYLAWYQQRPGQAPRLLMYGTSSWATGIPDRFSGSGSGTDFTLTISSLQPEDFATYYCQQSSSIPYTFGQGTKLEIKR
notes: as for B2
B9: the binding result is listed as “binds”.

B10: light chain of SEQ ID NO: 114 paired with the heavy chain of SEQ ID NO: 24 (antibody, human IgG2, kappa, V domains shown)
VH: B1 VH
VL: NIQMTQSPGTLSLSPGERATLSCRASQSVTGNHLAWYQQKPGQAPRVLMYDTSSRATGIPDRFSGSGSGTDFTLTISSLQPEDIATYYCQQFDNLPYTFGQGTKLEIKR
As for B10, the binding result is “binds”.

B11: light chain of SEQ ID NO: 108 paired with the heavy chain of SEQ ID NO: 24 (antibody, human IgG2, kappa, V domains shown)
VH: B1 VH
VL: DIQMTQSPSSLSASVGDRITISCQASQDIDNYLNWYQQKSGKAPKLLIYDAYNLKAGVPSRFRGSRSGTDFFLTISSLQPEDFATYYCLQQYRYPLTFGGGTKVEIKR
For B11, the binding result is given as “binds”.

B12: Ab-29 (antibody, human IgG2, kappa, V domains shown)
VH: B1 VH
VL: DIQMTQSPLSLSASVGDRVAITCRASQSISDSLNWYQQKPGKPPKIVIYAASGLPSGVPSRFSGGGSGTDFTLVISTLQPEDFATYYCQQSYSAPLTFGGGTKVEISR
notes: as for B2
Consider B12, for which the binding result is recorded as “binds”.

B13: Ab-63 (antibody, human IgG2, lambda, V domains shown)
VH: B1 VH
VL: QSALTQTPSVSGTPGQRVTISCTGSRSNIGAGYDVQWYQQFPGTAPRLLIYANNIRSSGVPDRFSGSKSGTSASLAITGLQAEDEATYYCQSYDRSLSGYVFGTGTEVTVVG
notes: as for B2
For B13, the binding result is given as “binds”.

B14: Ab-13 (antibody, human IgG2, kappa, V domains shown)
VH: B1 VH
VL: DIQMTQSPSSLSASVGDRVTITCRASQSISEYLNWYQQKPGQAPRLLIYGVSTRATGIAARFSGSGSGTDFTLTISSLQPEDSAVYYCQQDYNVPYTFGQGTKLEIKR
notes: as for B2
B14: the binding result is listed as “binds”.

B15: Ab-16 (antibody, human IgG2, kappa, V domains shown)
VH: B1 VH
VL: DIQLTQSPFSLSASVGDRVTITCRASQSINDNLNWYLQKPGKAPKLLIFAASTSQSGVPSRFSGNGFGTDFSLIISGLQPEDVGTYYCQQNDSMPFTFGQGTRLDIKR
notes: as for B2
B15: the binding result was “binds”.

B16: Ab-60 (antibody, human IgG2, lambda, V domains shown)
VH: B1 VH
VL: QSVVTQPPAVSGAPGQRITISCTGSSSNIGAGYDVHWYQQFPGTAPKVLIFANDYRPSGVPDRFSASKSATSASLAIRGLQSEDEADYYCQSYDNRLSGYVFGTGTKVTVLG
notes: as for B2
B16: the binding result is reported as “binds”.

B17: Ab-48 (antibody, human IgG2, kappa, V domains shown)
VH: B1 VH
VL: DIQMTQSPSSLSASIGDRVTITCQASQDINNYLNWYQQKQGKAPKVLIFDASNLAAGVPSRFSGSGSGTDFTLTISSLQPEDIATYYCQQYDNLPLTFGQGTKVDNKR
notes: as for B2
As for B17, the binding result is recorded as “binds”.

B18: Ab-65 (antibody, human IgG2, lambda, V domains shown)
VH: B1 VH
VL: QSVLTQPPSVSGAPGQRVTISCTGSSSNIGAGYDVHWYQQLPRTAPKLLIYGDTNRPSGVPDRFSGSKSGTSASLAITGLQTEDEADYYCQSYDSSLRAYVFGTGTKVTVLG
notes: as for B2
In the case of B18, the binding result is “binds”.

B19: light chain of SEQ ID NO: 110 paired with the heavy chain of SEQ ID NO: 24 (antibody, human IgG2, lambda, V domains shown)
VH: B1 VH
VL: QSVLTQPPSVSGAPGQRVTISCTGGSSNIGAGYEVHWYQLVPGRAPRFLIHGDNDRPSGVPDRFSASESGSSSFLAISGLQDDDEADYYCQSYDTSLSAWVFGGGTKLTVLG
In the case of B19, the binding result is on record as “binds”.

B20: light chain of SEQ ID NO: 104 paired with the heavy chain of SEQ ID NO: 24 (antibody, human IgG2, lambda, V domains shown)
VH: B1 VH
VL: NFMLTQPHSVSESPGKTVTISCTRNSGSIASNYVQWYQQRPGSSPATVIYEDNQRPSGVPDRFSGSIDISSNSASLTISGLKTEDEADYYCQSYDSSNPFYVFGTGTKVTVLG
notes: as for B2
In the case of B20, the binding result is “binds”.

B21: light chain of SEQ ID NO: 118 paired with the heavy chain of SEQ ID NO: 24 (antibody, human IgG2, kappa, V domains shown)
VH: B1 VH
VL: B11 VL with S9D, K39R, A84G, Y92S, R93S, G100Q
On to B21, for which the binding result is “binds”.
